Patent US20260347506 (published 2026)
“And” between values parts separate entries of the source, which are not always exact repeats. Equal values may be shown once.

T1: human IgE (human, UniProt P01854)
T1 chain: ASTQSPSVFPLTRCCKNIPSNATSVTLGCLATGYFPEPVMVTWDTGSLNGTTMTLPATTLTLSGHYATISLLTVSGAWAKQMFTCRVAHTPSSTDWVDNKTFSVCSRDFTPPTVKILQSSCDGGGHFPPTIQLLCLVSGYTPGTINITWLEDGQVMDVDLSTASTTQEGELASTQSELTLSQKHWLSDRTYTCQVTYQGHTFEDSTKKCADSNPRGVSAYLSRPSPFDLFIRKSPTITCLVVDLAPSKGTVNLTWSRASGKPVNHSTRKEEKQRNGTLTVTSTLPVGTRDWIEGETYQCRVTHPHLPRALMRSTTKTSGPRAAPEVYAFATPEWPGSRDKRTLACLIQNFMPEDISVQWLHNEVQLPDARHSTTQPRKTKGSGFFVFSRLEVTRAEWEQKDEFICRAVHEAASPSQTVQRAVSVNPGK


Key:
human IgE [1] = molecular target: T1, human IgE; test: ELISA, pH 5.5
human IgE [2] = molecular target: T1, human IgE; test: ELISA, pH 7.4
human IgE [3] = molecular target: T1, human IgE; test: competition ELISA
human IgE [4] = molecular target: T1, human IgE; test: SPR, pH 6.0
human IgE [5] = molecular target: T1, human IgE; test: SPR, pH 7.4
human IgE [6] = molecular target: T1, human IgE; test: SPR
human IgE [7] = molecular target: T1, human IgE; test: competition SPR, pH 6.0
human IgE [8] = molecular target: T1, human IgE; test: competition SPR, pH 7.4
human IgE [9] = molecular target: T1, human IgE; test: competition SPR, pH 6.0
human IgE [10] = molecular target: T1, human IgE; test: competition SPR, pH 7.4
human IgE [11] = molecular target: T1, human IgE; test: competition ELISA, pH 6.0
human IgE [12] = molecular target: T1, human IgE; test: competition ELISA, pH 7.4
human IgE [13] = molecular target: T1, human IgE; test: competition ELISA, pH 7.4
human IgE [14] = molecular target: T1, human IgE; test: competition ELISA, pH 6.0
human IgE [15] = molecular target: T1, human IgE; test: competition SPR, pH 7.4
human IgE [16] = molecular target: T1, human IgE; test: competition SPR, pH 5.5

Binder | IC50 (human IgE [8]) | IC50 (human IgE [9]) | IC50 (human IgE [13]) | IC50 (human IgE [14]) | other results
18E2_VLY34H_MG (18E2VL) (antibody, V domains shown) VH: QLLESGGGLVQPGGSLRLSCAASGFTFSSYVMSWVRQAPGKGLEWVSSIYHDGSHTYYADFVKGRFTISRDNSKNTLYLQMNSLRAEDTAVYYCAKGTSYSGSYYYTDPFFGSWGQGTLVTVSS VL: SSELTQDPAVSVALGQTVRITCQGDRLGSRYIHWYQQKPGQAPVLVIYDDDRRPSGIPDRFSGSSSGNTASLTITGAQAEDEADYYCQSADSSGNPVFGGGTQLTVL | – | – | – | – | EC50 (human IgE [1]): 0.0269 µg/mL and 0.0323 µg/mL; EC50 (human IgE [2]): 0.02 µg/mL and 0.0163 µg/mL; IC50 (human IgE [3]): 6.06 nM
18E2VLHis MG hIgG1-ABDEG (antibody, V domains shown) VH: QLLESGGGLVQPGGSLRLSCAASGFTFSSYVMSWVRQAPGKGLEWVSSIYHDGSHTYYADFVKGRFTISRDNSKNTLYLQMNSLRAEDTAVYYCAKGTSYSGSYYYTDPFFGSWGQGTLVTVSS VL: SSELTQDPAVSVALGQTVRITCQGDRLGSRYIHWYQQKPGQAPVLVIYDDDRRPSGIPDRFSGSSSGNTASLTITGAQAEDEADYYCQSADSSGNPVFGGGTQLTVL | – | – | – | – | Kd (human IgE [4]): 205 nM; Kd (human IgE [5]): 5.91 nM
OMA VH15-VL3 (antibody, V domains shown) VH: EVQLVESGGGLVQPGGSLRLSCAVSGYSITSGHRWEWIRQAPGKGLEWVASIHYDGSTNYNPSVKGRITISRDDSKNTFYLQMNSLRAEDTAVYYCARATHYFGHWHFAVWGQGTLVTVSS VL: DIQLTQSPSSLSASVGDRVTITCRASQSVDYDGDSYMNWYQQKPGKAPKLLIEWGSYLRSGVPSRFSGSGSGTDFTLTISSLQPEDFATYYCQQNAEDPYTFGQGTKVEIK | – | – | – | – | Kd (human IgE [6]): 0.0874 pM
13E4 (antibody, V domains shown) VH: ELQLVESGGGLVQPGGSLRLSCAASGFTFSSYVMSWVRQAPGKGLEWVSSIYHDGSHTYYADFVKGRFTISRDNAKNTLYLQMNSLKSEDTAVYYCASGTSYSGSYYYTDPFFGSWGQGTQVTVSS VL: HSAVTQPSALSVTLGQTAKITCQGGSLGSNYAYWYQQKPGQAPVLVIYDDDSRPSGIPERFSGSSSGGTATLTISGAQAEDEGDYYCQSADSNGNAVFGGGTHLTVL | 2.3 µg/mL | 2.5 µg/mL | 0.00682 µg/mL | 0.0114 µg/mL | IC50 (human IgE [7]): 1.54 nM; IC50 (human IgE [10]): 1.62 nM; IC50 (human IgE [11]): 12.9 nM; IC50 (human IgE [12]): 10.3 nM
18B9His-hIgG1-ABDEG (antibody, V domains shown) VH: QVQLVESGGGLVQPGGSLRLSCAASGFTFSSYVMSWVRQAPGKGLEWVSSIYSDGSHTYYADSVKGRFTISRDNAKNTLYLQMNSLKSEDTAVYYCAKNLEHYSGSYYYTDPRYDYWGQGTQVTVSS VL: SSALTQPSALSVTLGQTAKITCQGGSLGSSYVHWYQQKPGQAPVLVIHDGDSRPSGIPERFSGSSSGGTATLTISGAQAEDEDDYYCQSADSSGNAVFGGGTHLTVL | 2.9 µg/mL | 52.9 µg/mL | 0.13 µg/mL | 2.55 µg/mL | –
13E4-hIgG1-ABDEG (antibody, V domains shown) VH: ELQLVESGGGLVQPGGSLRLSCAASGFTFSSYVMSWVRQAPGKGLEWVSSIYHDGSHTYYADFVKGRFTISRDNAKNTLYLQMNSLKSEDTAVYYCASGTSYSGSYYYTDPFFGSWGQGTQVTVSS VL: HSAVTQPSALSVTLGQTAKITCQGGSLGSNYAYWYQQKPGQAPVLVIYDDDSRPSGIPERFSGSSSGGTATLTISGAQAEDEGDYYCQSADSNGNAVFGGGTHLTVL | 3 µg/mL | 3.2 µg/mL | 0.0065 µg/mL | 0.0106 µg/mL | –
18E2His2-hIgG1-ABDEG (antibody, V domains shown) VH: QLQLVESGGGLVQPGGSLRLSCAASGFTFSSYVMHWVRQAPGKGLEWVSSIYHDGSHTYYADFVKGRFTISRDNAKNTLYLQMNSLKSEDTAVYYCASGTSYSGSYYYTDPFFGSWGQGTQVTVSS VL: NFMLTQPSALSVTLGQTARITCQGDRLGSRYIHWYQQKPPQAPVLVIHDDDRRPSGIPERFSGSSSGGTATLTISGAQAEDDGDYYCQSADSSGNPVFGGGTHLTVL | 5.8 µg/mL | 7320 µg/mL | 1.49 µg/mL | 26.6 µg/mL | –

Now from value to binder, other results behind:

IC50 (human IgE [8]) | IC50 (human IgE [9]) | IC50 (human IgE [13]) | IC50 (human IgE [14]) | Binder | other results
2.7 µg/mL | 58.5 µg/mL | 0.19 µg/mL | 3.02 µg/mL | VL18B9_Y49H (18B9His) (antibody, V domains shown) VH: QVQLVESGGGLVQPGGSLRLSCAASGFTFSSYVMSWVRQAPGKGLEWVSSIYSDGSHTYYADSVKGRFTISRDNAKNTLYLQMNSLKSEDTAVYYCAKNLEHYSGSYYYTDPRYDYWGQGTQVTVSS VL: SSALTQPSALSVTLGQTAKITCQGGSLGSSYVHWYQQKPGQAPVLVIHDGDSRPSGIPERFSGSSSGGTATLTISGAQAEDEDDYYCQSADSSGNAVFGGGTHLTVL | IC50 (human IgE [15]): 0.749 µg/mL; IC50 (human IgE [16]): 4.06 µg/mL
6 µg/mL | 6310 µg/mL | 2.48 µg/mL | 77.2 µg/mL | 18E2_VH_S35H_VL_Y34H (18E2His2) (antibody, V domains shown) VH: QLQLVESGGGLVQPGGSLRLSCAASGFTFSSYVMHWVRQAPGKGLEWVSSIYHDGSHTYYADFVKGRFTISRDNAKNTLYLQMNSLKSEDTAVYYCASGTSYSGSYYYTDPFFGSWGQGTQVTVSS VL: NFMLTQPSALSVTLGQTARITCQGDRLGSRYIHWYQQKPPQAPVLVIHDDDRRPSGIPERFSGSSSGGTATLTISGAQAEDDGDYYCQSADSSGNPVFGGGTHLTVL | IC50 (human IgE [15]): 1.56 µg/mL; IC50 (human IgE [16]): 9.86 µg/mL
